Measurements as given in publication PMC4807222.

Tests used:
[1] = biological target: V5-Myc, murine c-Myc mutant 20-AAAI (murine) (UniProt P01108); assay: co-IP
[2] = biological target: V5-Myc, murine c-Myc mutant 20-PAAA (murine) (UniProt P01108); assay: co-IP
[3] = biological target: V5-Myc, murine c-Myc mutant 20-PAAI (murine) (UniProt P01108); assay: co-IP
[4] = biological target: c-Myc_(1–88) c-Myc-20-PYFY/AAAA-23 mutant (human) (UniProt P01106); assay: SPR

Flag-tagged Pin1 (co-immunoprecipitation), sequence (Q13526 whole entry): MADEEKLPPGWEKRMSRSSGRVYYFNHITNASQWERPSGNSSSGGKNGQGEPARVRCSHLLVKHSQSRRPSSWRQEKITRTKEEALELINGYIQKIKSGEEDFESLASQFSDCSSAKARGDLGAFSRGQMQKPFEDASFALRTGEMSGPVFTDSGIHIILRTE
full-length Pin1 (1–163), sequence (Q13526 whole entry): as above
V5-Myc, murine c-Myc mutant 20-PAAI (murine), sequence (P01108 whole entry, change not shown): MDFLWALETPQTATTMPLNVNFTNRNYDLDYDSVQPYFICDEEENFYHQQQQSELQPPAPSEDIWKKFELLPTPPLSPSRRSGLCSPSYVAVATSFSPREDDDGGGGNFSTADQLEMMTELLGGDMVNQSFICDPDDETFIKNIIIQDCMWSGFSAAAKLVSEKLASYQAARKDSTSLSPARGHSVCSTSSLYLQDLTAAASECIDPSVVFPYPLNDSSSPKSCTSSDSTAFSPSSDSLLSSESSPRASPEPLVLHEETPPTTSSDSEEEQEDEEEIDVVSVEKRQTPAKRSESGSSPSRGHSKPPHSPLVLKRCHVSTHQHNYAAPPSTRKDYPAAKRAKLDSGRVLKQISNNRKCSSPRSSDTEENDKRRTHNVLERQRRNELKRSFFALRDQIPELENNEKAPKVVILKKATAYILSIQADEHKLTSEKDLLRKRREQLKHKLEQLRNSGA
V5-Myc, murine c-Myc mutant 20-PAAA (murine), sequence (P01108 whole entry, change not shown): as above
V5-Myc, murine c-Myc mutant 20-AAAI (murine), sequence (P01108 whole entry, change not shown): as above

Flag-tagged Pin1 (co-immunoprecipitation) (from UniProt Q13526 1-163) (enzyme)
percent reduction of co-immunoprecipitated Pin1 against wild type [1]: > 50% | percent reduction of co-immunoprecipitated Pin1 against wild type [2]: > 50% | percent reduction of co-immunoprecipitated Pin1 against wild type [3]: > 50%

full-length Pin1 (1–163) (from UniProt Q13526 1-163) (enzyme)
Kd [4]: 15 µM
